Results: paper PMC12237909, “Wheat endosperm-specific transcription factor TaDOF6 enhances grain development by regulating TaSWEET13h expression and facilitating sugar and gibberellin transport”

Target: T1, TaDOF6 (Triticum aestivum (wheat; cultivar of …, UniProt A0A3B6LII6 1-338)
T1 sequence: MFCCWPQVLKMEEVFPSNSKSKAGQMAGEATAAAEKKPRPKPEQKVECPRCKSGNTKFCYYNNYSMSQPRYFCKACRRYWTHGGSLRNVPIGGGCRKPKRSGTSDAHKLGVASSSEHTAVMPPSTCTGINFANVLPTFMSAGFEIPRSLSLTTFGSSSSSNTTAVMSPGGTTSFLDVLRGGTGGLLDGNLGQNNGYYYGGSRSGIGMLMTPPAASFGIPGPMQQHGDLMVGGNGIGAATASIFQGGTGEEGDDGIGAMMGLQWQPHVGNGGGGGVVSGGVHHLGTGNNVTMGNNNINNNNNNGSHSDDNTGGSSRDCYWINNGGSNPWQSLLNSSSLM
Experiment: EMSA; EMSA buffer, salt, pH and temperature not stated (gel as in Zhang et al., 2016); probes annealed 95 C to 25 C
Conditions: protein: recombinant; tags: His (pETMALc-H vector); label: biotin (printed at both ends of each strand); blunt

B1: TaSWEET13h promoter P-box probe (dsDNA)
DNA 1: ATTAAAGCTAAAGTGTACACCAAAGCGACAACTTTTG
DNA 2: CAAAAGTTGTCGCTTTGGTGTACACTTTAGCTTTAAT
B1: binds.
